For 26 sequences, protein stability index results are on record in the supplement of paper PMC9732359.

± gives the uncertainty stated by the source.

A short description of the data set: protein stability index of a GFP-peptide fusion (yeast GPS) (PSI 1-4); higher = more stable; sorted into four equal gates, so the index is relative within each strain. The gist of the method:
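Plasmids in a pooled yeast library fused tiled 17-residue yeast protein peptides downstream of GFP and also expressed Cherry. Mid-log cultures grown without leucine were sorted into four equal gates by GFP/Cherry fluorescence ratio. Each gate's plasmids were PCR-amplified and Illumina-sequenced, and reads were matched to strains by barcodes. The protein stability index is derived by multiplying each gate's read frequency by its gate number and summing the results.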

Consider KDFVTMAIEIINDIRDD [YCG1], for which the protein stability index stood at 1.85 ± 0.12 (doa10∆), 1.7 ± 0.16 (pdr5∆), 2.17 ± 0.2 (san1∆) and 2.42 ± 0.19 (ubr1∆).

For the sequence KDGEDIIFNYVPGPGTK [CSL4], the protein stability index was 2.56 ± 0.17 (doa10∆), 2.53 ± 0.11 (pdr5∆), 2.23 ± 0.14 (san1∆) and 2.52 ± 0.29 (ubr1∆).

As to KDGGDKPPSSAFNFSFN [YAR002W/NUP60], the protein stability index is, setting by setting: (doa10∆) 3.18 ± 0.066; (pdr5∆) 3.22 ± 0.054; (san1∆) 3.17 ± 0.052; (ubr1∆) 3.29 ± 0.061.

For the sequence KDGLKLVGSWKKDRATG [RPO21], the protein stability index is, setting by setting: (doa10∆) 3.58 ± 0.2; (san1∆) 3.33 ± 0.15.

On to KDHLLGRLASTIAKQVL [RPL16B], for which the protein stability index worked out at 1.66 ± 0.085 (doa10∆), 1.57 ± 0.092 (pdr5∆), 1.25 ± 0.14 (san1∆) and 1.3 ± 0.066 (ubr1∆).

With KDIEKLTNEISDLKGKL [YIL149C/MLP2], the protein stability index (doa10∆) worked out at 3.04 ± 0.11, the protein stability index (pdr5∆) turned out to be 3.12 ± 0.049, the protein stability index (san1∆) was 3.34 ± 0.067 and the protein stability index (ubr1∆) was found to be 3.17 ± 0.057.

KDIKANLSSNVNFTEIG [YCS4] gave a protein stability index (doa10∆) of 2.83 ± 0.043, a protein stability index (pdr5∆) of 2.74 ± 0.051, a protein stability index (san1∆) of 2.77 ± 0.05 and a protein stability index (ubr1∆) of 2.77 ± 0.039.

For KDIRSTLASLIRYNSVE [RPC82], the protein stability index reads like this: (doa10∆) 2.67 ± 0.14; (pdr5∆) 2.13 ± 0.086; (san1∆) 2.67 ± 0.12; (ubr1∆) 2.45 ± 0.11.

Take KDLDGWQVIITDDQGRV [SIR3]: the protein stability index runs as follows: (doa10∆) 3.15 ± 0.093; (pdr5∆) 3.03 ± 0.077; (san1∆) 3.21 ± 0.068; (ubr1∆) 3.35 ± 0.064.

For KDLKEILSGFHNAGPVA [RPP1B], the protein stability index runs as follows: (doa10∆) 2.93 ± 0.057; (pdr5∆) 2.75 ± 0.062; (san1∆) 2.62 ± 0.066; (ubr1∆) 2.58 ± 0.066.

As for KDLVKNNVSFNAKDIQI [FAS1], the protein stability index by setting is: (doa10∆) 2.46 ± 0.041; (pdr5∆) 2.62 ± 0.061; (san1∆) 2.69 ± 0.07; (ubr1∆) 2.71 ± 0.043.

For the sequence KDPVDFVRQAAMIALSM [RPN2], the protein stability index (doa10∆) was 1.42 ± 0.082, the protein stability index (pdr5∆) was found to be 2.21 ± 0.14, the protein stability index (san1∆) was found to be 1.81 ± 0.17 and the protein stability index (ubr1∆) worked out at 1.97 ± 0.13.

Take KDRLYCGKCHSVYKVNA [RPS31]: the protein stability index is 1.49 ± 0.086 (doa10∆), 2.26 ± 0.1 (pdr5∆), 1.89 ± 0.14 (san1∆) and 2.01 ± 0.052 (ubr1∆).

The sequence KDSTAGKKVFETQYFWK [YJR042W/NUP85] returned a protein stability index (san1∆) of 3.03 ± 0.21.

Consider KEAAAIAEGKSKQDASP [RPL8B], for which the protein stability index is, setting by setting: (doa10∆) 2.96 ± 0.1; (pdr5∆) 3.35 ± 0.083; (san1∆) 2.99 ± 0.068; (ubr1∆) 3.06 ± 0.062.

On to KEAAAVAEGKSKQDASP [RPL8A], for which the protein stability index is, setting by setting: (doa10∆) 3.22 ± 0.085; (pdr5∆) 3.29 ± 0.056; (san1∆) 3.15 ± 0.044; (ubr1∆) 3.04 ± 0.054.

On to KEDADLKRMEILKSPHL [SIR4], for which the protein stability index was determined as 2.88 ± 0.053 (doa10∆), 2.95 ± 0.077 (pdr5∆), 2.99 ± 0.053 (san1∆) and 3.08 ± 0.057 (ubr1∆).

On to KEECQIEDDGIIESHLI [CSN9], for which the protein stability index by setting is: (doa10∆) 3.59 ± 0.25; (pdr5∆) 3.23 ± 0.14; (san1∆) 3.19 ± 0.084; (ubr1∆) 3.02 ± 0.23.

For KEELLRDGVLTVTLNKN [RRP45], the protein stability index (doa10∆) worked out at 1.78 ± 0.054, the protein stability index (pdr5∆) worked out at 2.11 ± 0.06, the protein stability index (san1∆) was 2.21 ± 0.084 and the protein stability index (ubr1∆) is 2.06 ± 0.048.

KELDALQEKEQLYFKKK [ISW2]: the protein stability index worked out at 3.22 ± 0.11 (doa10∆), 3.15 ± 0.14 (pdr5∆), 3.24 ± 0.25 (san1∆) and 3.55 ± 0.11 (ubr1∆).

On to KELQQLQKQILTVENKL [SMC1], for which the protein stability index reads like this: (doa10∆) 1.74 ± 0.081; (pdr5∆) 1.99 ± 0.063; (san1∆) 1.98 ± 0.091; (ubr1∆) 2.18 ± 0.09.

In the case of KELQYDNEQNLESDFVT [PRE2], the protein stability index was 2.93 ± 0.092 (doa10∆), 3.16 ± 0.075 (pdr5∆), 2.91 ± 0.075 (san1∆) and 3.02 ± 0.055 (ubr1∆).

In turn, KENELLFGEKSILGKFC [YCS4] came in with a protein stability index (doa10∆) of 1.55 ± 0.04, a protein stability index (pdr5∆) of 1.72 ± 0.051, a protein stability index (san1∆) of 1.59 ± 0.11 and a protein stability index (ubr1∆) of 1.73 ± 0.039.

KERIIRAFLIEEQKIVK [RPL34A]: the protein stability index reads like this: (doa10∆) 3.06 ± 0.082; (pdr5∆) 2.26 ± 0.087; (san1∆) 2.04 ± 0.13; (ubr1∆) 2.49 ± 0.066.

For KEVIELPVKHPELFESL [RPT6], the protein stability index was 2.98 ± 0.064 (doa10∆), 3.04 ± 0.036 (pdr5∆), 3.05 ± 0.054 (san1∆) and 3.09 ± 0.055 (ubr1∆).

Turning to KEVSSFLMGIFNSVVNL [MTR3], the protein stability index amounted to 2.83 ± 0.057 (doa10∆), 2.91 ± 0.049 (pdr5∆), 2.88 ± 0.056 (san1∆) and 3 ± 0.043 (ubr1∆).
